B1: Azoarcus group I ribozyme (parent)
chain: GUGCCUUGCGCCGGGAAACCACGCAAGGGAUGGUGUCAAAUUCGGCGAAACCUAAGCGCCCGCCCGGGCGUAUGGCAACGCCGAGCCAAGCUUCGGCGCCUGCGCCGAUGAAGGUGUAGAGACUAGACGGCACCCACCUAAGGCAAACGCUAUGGUGAAGGCAUAGUCCAGGGAGUGGCGAAAGUCACACAAACCGG

Variants of: B1
Test: reverse-splicing fitness (ratio to wild type); higher = more active; in vitro selection; Mg2+ level not given
Procedure, shortened: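 An in vitro group I ribozyme library with randomized positions was T7-transcribed and gel-purified. In triplicate, 10 pmol RNA in EPPS pH 7.5 was reacted with 50 pmoles of a 30-nt RNA substrate for 1 h at 37 °C across several added MgCl2 levels (1–48 mM), then stopped with EDTA. Products were reverse transcribed from a substrate-complementary primer, PCR-amplified and sequenced (HiSeq 4000). Fitness is a variant's read proportion after selection over that before, normalised to wild type.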

Question: For C82U A111G A145C C150G C169G U176A, which reverse-splicing fitness is on record?
Answer: 0.00777

Question: With C82U A111G A145C C150G C169G U176G as the variant, how does the reverse-splicing fitness read?
Answer: 0.0047

Question: With C82U A111G A145C C150G C169G U176C as the variant, how does the reverse-splicing fitness read?
Answer: 0.00634

Question: For C82U A111G A145C C169A U176G, which reverse-splicing fitness is on record?
Answer: 0.00408

Question: With C82U A111G A145C C169A U176A as the variant, how does the reverse-splicing fitness read?
Answer: 0.00798

Question: With C82U A111G A145C C169A U176C as the variant, how does the reverse-splicing fitness read?
Answer: 0.00406

Question: With C82U A111G A120U C150U C169A U176C as the variant, how does the reverse-splicing fitness read?
Answer: 0.00318

Question: Which reverse-splicing fitness does the source give for C82U A111G A120U C150U C169A U176G here?
Answer: 0.00203

Question: With C82U A111G A120U C150U C169A U176A as the variant, how does the reverse-splicing fitness read?
Answer: 0.00365

Question: Which reverse-splicing fitness does the source give for C82U A111G A145C C150G C169U here?
Answer: 0.00804

Question: Which reverse-splicing fitness does the source give for C82U A111G A145C C150G C169G here?
Answer: 0.00679

Question: For C82U A111G A145C C150G C169A, which reverse-splicing fitness is on record?
Answer: 0.00744

Question: Which reverse-splicing fitness does the source give for C82U A111G A145C U176A here?
Answer: 0.178

Question: With C82U A111G A145C U176C as the variant, how does the reverse-splicing fitness read?
Answer: 0.242

Question: Which reverse-splicing fitness does the source give for C82U A111G A145C U176G here?
Answer: 0.0614

Question: With C82U A111G A120U C150G U176C as the variant, how does the reverse-splicing fitness read?
Answer: 0.0053

Question: With C82U A111G A120U C150G U176G as the variant, how does the reverse-splicing fitness read?
Answer: 0.00216

Question: For C82U A111G A120U C150G U176A, which reverse-splicing fitness is on record?
Answer: 0.00422

Question: For C82U A111G A145C C150U C169G, which reverse-splicing fitness is on record?
Answer: 0.00755

Question: For C82U A111G A145C C150U C169U, which reverse-splicing fitness is on record?
Answer: 0.00947

Question: With C82U A111G A145C C150U C169A as the variant, how does the reverse-splicing fitness read?
Answer: 0.00735

Question: For C82U A111G A120U C150U C169A, which reverse-splicing fitness is on record?
Answer: 0.00334

Question: With C82U A111G A120U C150U C169U as the variant, how does the reverse-splicing fitness read?
Answer: 0.00388

Question: For C82U A111G A120U C150U C169G, which reverse-splicing fitness is on record?
Answer: 0.00459

Question: Which reverse-splicing fitness does the source give for C82U A111G A145C C169G U176C here?
Answer: 0.0119

Question: Which reverse-splicing fitness does the source give for C82U A111G A145C C169G U176G here?
Answer: 0.00461

Question: Which reverse-splicing fitness does the source give for C82U A111G A145C C169G U176A here?
Answer: 0.0196

Question: For C82U A111G A120U C150G C169U U176G, which reverse-splicing fitness is on record?
Answer: 0.00234

Question: For C82U A111G A120U C150G C169U U176C, which reverse-splicing fitness is on record?
Answer: 0.00396

Question: With C82U A111G A120U C150U as the variant, how does the reverse-splicing fitness read?
Answer: 0.0236

Question: With C82U A111G A145C C150G U176A as the variant, how does the reverse-splicing fitness read?
Answer: 0.0112

Question: For C82U A111G A145C C150G U176C, which reverse-splicing fitness is on record?
Answer: 0.0249

Question: Which reverse-splicing fitness does the source give for C82U A111G A145C C150G U176G here?
Answer: 0.00329

Question: With C82U A111G A120U C150U U176C as the variant, how does the reverse-splicing fitness read?
Answer: 0.0105

Question: With C82U A111G A120U C150U U176A as the variant, how does the reverse-splicing fitness read?
Answer: 0.00678

Question: For C82U A111G A120U C150U U176G, which reverse-splicing fitness is on record?
Answer: 0.00374

Question: With C82U A111G A145G C150U C169G U176C as the variant, how does the reverse-splicing fitness read?
Answer: 0.0174

Question: Which reverse-splicing fitness does the source give for C82U A111G A145G C150U C169G U176A here?
Answer: 0.0169

Question: For C82U A111G A145G C150U C169G U176G, which reverse-splicing fitness is on record?
Answer: 0.00547

Question: For C82U A111G A120U C150U C169G U176C, which reverse-splicing fitness is on record?
Answer: 0.00322

Question: Which reverse-splicing fitness does the source give for C82U A111G A120U C150U C169G U176G here?
Answer: 0.00216

Question: For C82U A111G A120U C150U C169G U176A, which reverse-splicing fitness is on record?
Answer: 0.00733

Question: Which reverse-splicing fitness does the source give for C82U A111G A145C C150A C169A U176G here?
Answer: 0.00539

Question: Which reverse-splicing fitness does the source give for C82U A111G A145C C150A C169A U176A here?
Answer: 0.0104

Question: With C82U A111G A145C C150A C169A U176C as the variant, how does the reverse-splicing fitness read?
Answer: 0.00627

Question: For C82U A111G A145G C150A C169U U176G, which reverse-splicing fitness is on record?
Answer: 0.00552

Question: With C82U A111G A145G C150A C169U U176A as the variant, how does the reverse-splicing fitness read?
Answer: 0.0135

Question: For C82U A111G A145G C150A C169U U176C, which reverse-splicing fitness is on record?
Answer: 0.0151

Question: For C82U A111G A120U C150U C169U U176C, which reverse-splicing fitness is on record?
Answer: 0.00375

Question: For C82U A111G A120U C150U C169U U176G, which reverse-splicing fitness is on record?
Answer: 0.0019

Question: Which reverse-splicing fitness does the source give for C82U A111G A120U C150U C169U U176A here?
Answer: 0.00404

Question: For C82U A111G A145G C150U C169U U176G, which reverse-splicing fitness is on record?
Answer: 0.005

Question: For C82U A111G A145G C150U C169U U176C, which reverse-splicing fitness is on record?
Answer: 0.0132

Question: For C82U A111G A145G C150U C169U U176A, which reverse-splicing fitness is on record?
Answer: 0.0132

Question: Which reverse-splicing fitness does the source give for C82U A111G A120U C169A U176G here?
Answer: 0.00189

Question: With C82U A111G A120U C169A U176C as the variant, how does the reverse-splicing fitness read?
Answer: 0.00211

Question: For C82U A111G A120U C169A U176A, which reverse-splicing fitness is on record?
Answer: 0.0024

Question: Which reverse-splicing fitness does the source give for C82U A111G A145C C150G C169A U176G here?
Answer: 0.00511

Question: Which reverse-splicing fitness does the source give for C82U A111G A145C C150G C169A U176C here?
Answer: 0.00614

Question: With C82U A111G A145C C150G C169A U176A as the variant, how does the reverse-splicing fitness read?
Answer: 0.00801

Question: For C82U A111G A145G C150A C169A U176G, which reverse-splicing fitness is on record?
Answer: 0.00546

Question: With C82U A111G A145G C150A C169A U176A as the variant, how does the reverse-splicing fitness read?
Answer: 0.0187

Question: For C82U A111G A145G C150A C169A U176C, which reverse-splicing fitness is on record?
Answer: 0.0247

Question: Which reverse-splicing fitness does the source give for C82U A111G A145G C169A U176C here?
Answer: 0.022

Question: For C82U A111G A145G C169A U176A, which reverse-splicing fitness is on record?
Answer: 0.0185

Question: For C82U A111G A145G C169A U176G, which reverse-splicing fitness is on record?
Answer: 0.00491

Question: With C82U A111G A120U C169U as the variant, how does the reverse-splicing fitness read?
Answer: 0.00493

Question: With C82U A111G A120U C169A as the variant, how does the reverse-splicing fitness read?
Answer: 0.00275

Question: Which reverse-splicing fitness does the source give for C82U A111G A120U C169G here?
Answer: 0.00416

Question: For C82U A111G A145G C150A C169G U176G, which reverse-splicing fitness is on record?
Answer: 0.00543

Question: Which reverse-splicing fitness does the source give for C82U A111G A145G C150A C169G U176A here?
Answer: 0.0194

Question: For C82U A111G A145G C150A C169G U176C, which reverse-splicing fitness is on record?
Answer: 0.0236

Question: Which reverse-splicing fitness does the source give for C82U A111G A145C C150A C169G here?
Answer: 0.0066

Question: With C82U A111G A145C C150A C169U as the variant, how does the reverse-splicing fitness read?
Answer: 0.00807

Question: Which reverse-splicing fitness does the source give for C82U A111G A145C C150A C169A here?
Answer: 0.0083

Question: For C82U A111G A145G C150A, which reverse-splicing fitness is on record?
Answer: 0.0568

Question: With C82U A111G A145G C150G as the variant, how does the reverse-splicing fitness read?
Answer: 0.0407

Question: With C82U A111G A145G C150U as the variant, how does the reverse-splicing fitness read?
Answer: 0.334

Question: With C82U A111G A145C C169U as the variant, how does the reverse-splicing fitness read?
Answer: 0.00982

Question: Which reverse-splicing fitness does the source give for C82U A111G A145C C169G here?
Answer: 0.0078

Question: With C82U A111G A145C C169A as the variant, how does the reverse-splicing fitness read?
Answer: 0.00618

Question: With C82U A111G A145C C150U C169U U176C as the variant, how does the reverse-splicing fitness read?
Answer: 0.00834

Question: For C82U A111G A145C C150U C169U U176A, which reverse-splicing fitness is on record?
Answer: 0.0119

Question: For C82U A111G A145C C150U C169U U176G, which reverse-splicing fitness is on record?
Answer: 0.00493
